# Source: patent US20120283168A1
# Square brackets hold non-standard residues; d marks the D form. Oic = O=C(O)[C@@H]1C[C@@H]2CCCC[C@@H]2N1; Tic = O=C(O)[C@@H]1Cc2ccccc2CN1; Dab = NCC[C@H](N)C(=O)O; Ac4c = NC1(C(=O)O)CCC1; Deg = CCC(N)(CC)C(=O)O; Aib = CC(C)(N)C(=O)O
# Biological target: human CCR10 (human) (UniProt P46092)
# Experiment: cell-based or functional assay
# human CCR10 (human), sequence (P46092 whole entry): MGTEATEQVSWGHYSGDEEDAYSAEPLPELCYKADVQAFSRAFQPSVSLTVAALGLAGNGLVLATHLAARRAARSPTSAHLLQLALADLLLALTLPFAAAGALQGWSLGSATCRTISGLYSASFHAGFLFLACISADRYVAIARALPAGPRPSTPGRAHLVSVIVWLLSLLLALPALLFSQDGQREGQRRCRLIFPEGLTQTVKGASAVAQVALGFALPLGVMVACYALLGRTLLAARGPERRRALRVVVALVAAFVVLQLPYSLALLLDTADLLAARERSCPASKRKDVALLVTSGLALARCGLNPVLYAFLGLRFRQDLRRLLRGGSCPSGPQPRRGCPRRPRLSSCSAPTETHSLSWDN
Substance,IC50 (nM) Calcium Flux Assay [nM],IC50 (nM) Chemotaxis Assay [nM]
cyclo(-Trp-Cyp-Trp-Dab-^DPip-Oic-) (peptide),26,17
cyclo(-Trp-Cyp-Trp-Dab-^DPro-(4S)-Hyp(Bn)-) (peptide),260,60.1
cyclo(-Trp-Cyp-Trp-Dab-^DPro-Hyp(3CNBn)-) (peptide),127,50.7
cyclo(-Trp-Cyp-Trp-Dab-^DPro-Hyp(4BrBn)-) (peptide),11.6,2.5
cyclo(-Trp-Cyp-Trp-Dab-^DPro-Hyp(4CNBn)-) (peptide),48.9,143
cyclo(-Trp-Cyp-Trp-Dab-^DPro-Hyp(Bn)-) (peptide),65.8,14
cyclo(-Trp-Cyp-Trp-Dab-^DPro-Hyp(CONHPh)-) (peptide),150,184
cyclo(-Trp-Cyp-Trp-Dab-^DPro-Hyp(Ph)-) (peptide),42,37
cyclo(-Trp-Cyp-Trp-Dab-^DPro-Hyp-) (peptide),190,–
cyclo(-Trp-Cyp-Trp-Dab-^DPro-Oic-) (peptide),123,29
"cyclo(-Trp-Cyp-Trp-Dab-^DPro-Pro(5,5Me2)-) (peptide)",82.5,14.2
cyclo(-Trp-Cyp-Trp-Dab-^DPro-Pro((4R)3CNBn)-) (peptide),27.9,3.8
cyclo(-Trp-Cyp-Trp-Dab-^DPro-Pro((4R)4BrBn)-) (peptide),15.8,9
cyclo(-Trp-Cyp-Trp-Dab-^DPro-Pro((4R)Bn)-) (peptide),26.1,2.3
cyclo(-Trp-Cyp-Trp-Dab-^DPro-Pro((4S)F)-) (peptide),860,42
cyclo(-Trp-Cyp-Trp-Dab-^DPro-Pro((4S)cHex)-) (peptide),54.3,140
cyclo(-Trp-Cyp-Trp-Dab-^DPro-Thz-) (peptide),134,19.6
cyclo(-Trp-Cyp-Trp-Dap((MeO(CH2)2)2)-^DPro-Oic-) (peptide),399,15.2
cyclo(-Trp-Cyp-Trp-Dap(CONH2)-^DPro-Oic-) (peptide),20,4.7
cyclo(-Trp-Cyp-Trp-Dap(MeO(CH2)2)-^DPro-Oic-) (peptide),56.8,6.9
cyclo(-Trp-Cyp-Trp-Dap-^DPro-Oic-) (peptide),52.7,–
cyclo(-Trp-Cyp-Trp-Gln(iPr)-^DPro-Oic-) (peptide),25.1,1
cyclo(-Trp-Cyp-Trp-Gln-^DPro-Oic-) (peptide),44.3,–
cyclo(-Trp-Cyp-Trp-Lys(4Oxa)-^DPro-Oic-) (peptide),107,5.9
cyclo(-Trp-Cyp-Trp-Lys((5R)OH)-^DPro-Oic-) (peptide),333,7

Substance,IC50 (nM) Calcium Flux Assay [nM],IC50 (nM) Chemotaxis Assay [nM]
cyclo(-Trp-Cyp-Trp-Lys(Ac)-^DPro-Oic-) (peptide),28,2.3
cyclo(-Trp-Cyp-Trp-Lys(Bz)-^DPro-Oic-) (peptide),3,2.7
cyclo(-Trp-Cyp-Trp-Lys(Me)-^DPro-Oic-) (peptide),–,4.4
cyclo(-Trp-Cyp-Trp-Lys(Nic)-^DPro-Oic-) (peptide),49.5,8.8
cyclo(-Trp-Cyp-Trp-Met(O2)-^DPro-Oic-) (peptide),4.8,1.2
cyclo(-Trp-Cyp-Trp-Ser(Me)-^DPro-Oic-) (peptide),46.4,10.1
cyclo(-Trp-Cyp-Trp-Ser-^DPip-Oic-) (peptide),6.9,9.6
cyclo(-Trp-Cyp-Trp-Ser-^DPro-Hyp(Bn)-) (peptide),12.6,35.4
cyclo(-Trp-Cyp-Trp-Ser-^DPro-Oic-) (peptide),61.6,1.4
cyclo(-Trp-Cyp-Trp-Thr-^DPro-Oic-) (peptide),20.4,5.4
cyclo(-Trp-Cyp-Trp-alloThr-^DPro-Oic-) (peptide),11.6,1.2
cyclo(-Trp-Cyp-Trp-hArg-^DPro-Oic-) (peptide),25,3.7
cyclo(-Trp-Cyp-Trp-hCys-^DPro-Oic-) (peptide),54.9,8.7
cyclo(-Trp-Cyp-Trp-hSer(Me)-^DPro-Oic-) (peptide),12,1.8
cyclo(-Trp-Cyp-Tyr(Me)-Dab-^DPro-Oic-) (peptide),214,3.8
cyclo(-Trp-Cyp-Tyr(Ph)-Dab-^DPro-Oic-) (peptide),602,208
cyclo(-Trp-^DLAtc-Trp-Dab-^DPro-Oic-) (peptide),608,–
cyclo(-Tyr(4MeOCOBn)-Cyp-Trp-Dab-^DPro-Oic-) (peptide),16.7,2.3
cyclo(-Tyr(40HPh)-Cyp-Trp-Dab-^DPro-Oic-) (peptide),48.9,6.6
cyclo(-Tyr(Ph)-Cyp-Trp-Dab-^DPro-Oic-) (peptide),1.1,1.7
cyclo(-hTyr-Cyp-Trp-Dab-^DPro-Oic-) (peptide),516,13
cyclo(W[Ac4c]W[Dab][dP][Oic]),353,1.7
cyclo(W[Aib]WR[dP][Tic]),226,94
cyclo(W[Aib]W[Dab][dP][Tic]),200,21.6
cyclo(W[Deg]W[Dab][dP][Oic]),146,76.1
